Results on 5 molecules are retold here after patent US20230322953A1 (HARBOUR BIOMED SHANGHAI, published 2023).

Sequences and labels used below:
T1: human BCMA (human, UniProt Q02223 1-184)
T1 construct: whole, on cells; also called hBCMA; TNFRSF17
T1 sequence (looked up): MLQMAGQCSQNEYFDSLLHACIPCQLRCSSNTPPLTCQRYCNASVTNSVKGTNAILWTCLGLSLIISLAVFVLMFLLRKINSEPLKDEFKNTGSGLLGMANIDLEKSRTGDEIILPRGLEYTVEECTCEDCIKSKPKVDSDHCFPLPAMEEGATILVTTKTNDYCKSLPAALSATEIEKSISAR

B1: PR003868 (bispecific antibody, human IgG1, lambda, L234A L235A)
light: QAVVTQEPSLTVSPGGTVTLTCRSSTGAVTTSNYANWVQQKPGQAPRGLIGGTNKRAPWTPARFSGSLLGDKAALTLLGAQPEDEAEYFCALWYSNLWVFGGGTKLTVLGQPKAAPSVTLFPPSSEELQANKATLVCLISDFYPGAVTVAWKADSSPVKAGVETTTPSKQSNNKYAASSYLSLTPEQWKSHRSYSCQVTHEGSTVEKTVAPTECS
heavy: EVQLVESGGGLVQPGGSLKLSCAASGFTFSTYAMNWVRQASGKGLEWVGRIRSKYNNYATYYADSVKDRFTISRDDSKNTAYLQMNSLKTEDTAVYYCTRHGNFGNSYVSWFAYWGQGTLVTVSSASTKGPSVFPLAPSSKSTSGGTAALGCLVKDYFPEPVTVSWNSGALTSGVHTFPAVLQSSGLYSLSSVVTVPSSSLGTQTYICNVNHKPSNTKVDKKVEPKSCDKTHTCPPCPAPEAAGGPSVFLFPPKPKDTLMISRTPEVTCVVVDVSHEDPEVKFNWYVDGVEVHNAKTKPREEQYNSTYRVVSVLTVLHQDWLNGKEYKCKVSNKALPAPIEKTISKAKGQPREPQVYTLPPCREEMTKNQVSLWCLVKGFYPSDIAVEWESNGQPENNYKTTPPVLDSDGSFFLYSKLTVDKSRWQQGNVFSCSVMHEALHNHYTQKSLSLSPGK
chain: EVQLVETGGGLIQPGGSLRLSCAASGFTVYDNYMTWVRQAPGKGLEWVSVIFSGGKTYVADSVKGRFTISRDNAKNTLYLQMNSLRAEDTALYYCARRNYDQTRGTDVFDIWGQGTMVTVSSASEPKSSDKTHTCPPCPAPEAAGGPSVFLFPPKPKDTLMISRTPEVTCVVVDVSHEDPEVKFNWYVDGVEVHNAKTKPREEQYNSTYRVVSVLTVLHQDWLNGKEYKCKVSNKALPAPIEKTISKAKGQPREPQVCTLPPSREEMTKNQVSLSCAVKGFYPSDIAVEWESNGQPENNYKTTPPVLDSDGSFFLVSKLTVDKSRWQQGNVFSCSVMHEALHNHYTQKSLSLSPGK
notes: BCMAxCD3, Fab-Fc-VH (structure 11); CD3 Fab of PR003886, BCMA VH of PR004563; IgG1 knob/hole, LALA
B2: PR003869 (bispecific antibody, human IgG1, lambda, L234A L235A)
light: QAVVTQEPSLTVSPGGTVTLTCRSSTGAVTTSNYANWVQQKPGQAPRGLIGGTNKRAPWTPARFSGSLLGDKAALTLLGAQPEDEAEYFCALWYSNLWVFGGGTKLTVLGQPKAAPSVTLFPPSSEELQANKATLVCLISDFYPGAVTVAWKADSSPVKAGVETTTPSKQSNNKYAASSYLSLTPEQWKSHRSYSCQVTHEGSTVEKTVAPTECS
heavy: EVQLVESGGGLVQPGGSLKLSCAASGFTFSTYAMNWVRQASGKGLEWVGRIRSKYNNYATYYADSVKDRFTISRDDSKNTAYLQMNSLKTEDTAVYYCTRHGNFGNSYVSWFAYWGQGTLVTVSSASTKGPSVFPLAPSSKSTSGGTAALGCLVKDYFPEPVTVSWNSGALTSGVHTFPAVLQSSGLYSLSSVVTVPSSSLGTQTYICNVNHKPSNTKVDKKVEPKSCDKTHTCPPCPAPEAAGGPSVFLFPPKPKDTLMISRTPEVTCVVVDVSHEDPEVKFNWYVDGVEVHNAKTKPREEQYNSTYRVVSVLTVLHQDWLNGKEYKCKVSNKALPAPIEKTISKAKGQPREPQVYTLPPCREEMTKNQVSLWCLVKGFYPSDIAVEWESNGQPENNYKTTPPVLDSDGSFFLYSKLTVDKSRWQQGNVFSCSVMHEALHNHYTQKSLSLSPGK
chain: EVQLVETGGGLIQPGGSLRLSCAASGFTVSDSYMTWVRQAPGKGLEWVSVIFSGGRTYYSDSVKGRFTISRDNAKNTLYLQMNSLRAEDTALYYCARRNYDQTLGTDVFDIWGQGTMVTVSSASEPKSSDKTHTCPPCPAPEAAGGPSVFLFPPKPKDTLMISRTPEVTCVVVDVSHEDPEVKFNWYVDGVEVHNAKTKPREEQYNSTYRVVSVLTVLHQDWLNGKEYKCKVSNKALPAPIEKTISKAKGQPREPQVCTLPPSREEMTKNQVSLSCAVKGFYPSDIAVEWESNGQPENNYKTTPPVLDSDGSFFLVSKLTVDKSRWQQGNVFSCSVMHEALHNHYTQKSLSLSPGK
notes: BCMAxCD3, Fab-Fc-VH (structure 11); CD3 Fab of PR003886, BCMA VH of PR004564; IgG1 knob/hole, LALA
B3: PR001992 (bispecific antibody, human IgG1, kappa, L234A L235A)
chain 1: EVQLLESGGGLVQPGGSLRLSCAASGFTFNTYAMNWVRQAPGKGLEWVSRIRSKYNNYATYYADSVKDRFTISRDDSKSTLYLQMNSLRAEDTAVYYCVRHGNFGNSYVSWFAYWGQGTLVTVSSRTVAAPSVFIFPPSDEQLKSGTASVVCLLNNFYPREAKVQWKVDNALQSGNSQESVTEQDSKDSTYSLSSTLTLSKADYEKHKVYACEVTHQGLSSPVTKSFNRGEC
chain 2: QAVVTQEPSLTVSPGGTVTLTCRSSTGAVTTSNYANWVQQKPGQAPRGLIGGTNKRAPWTPARFSGSLLGDKAALTLLGAQPEDEAEYFCALWYSNLWVFGGGTKLTVLSSASTKGPSVFPLAPSSKSTSGGTAALGCLVKDYFPEPVTVSWNSGALTSGVHTFPAVLQSSGLYSLSSVVTVPSSSLGTQTYICNVNHKPSNTKVDKKVEPKSCDKTHTCPPCPAPEAAGGPSVFLFPPKPKDTLMISRTPEVTCVVVDVSHEDPEVKFNWYVDGVEVHNAKTKPREEQYNSTYRVVSVLTVLHQDWLNGKEYKCKVSNKALGAPIEKTISKAKGQPREPQVYTLPPCREEMTKNQVSLWCLVKGFYPSDIAVEWESNGQPENNYKTTPPVLDSDGSFFLYSKLTVDKSRWQQGNVFSCSVMHEALHNHYTQKSLSLSPGK
chain 3: EVQLVETGGGLIQPGGSLRLSCAASGFPVSSNYMSWVRQAPGKGLEWVSVIFSGGRTYYADSVKGRFTISRDNSKNTLYLQMNSLRAEDTAVYYCARRNWIDGRDAFDIWGQGTMVTVSSASEPKSSDKTHTCPPCPAPEAAGGPSVFLFPPKPKDTLMISRTPEVTCVVVDVSHEDPEVKFNWYVDGVEVHNAKTKPREEQYNSTYRVVSVLTVLHQDWLNGKEYKCKVSNKALGAPIEKTISKAKGQPREPQVCTLPPSREEMTKNQVSLSCAVKGFYPSDIAVEWESNGQPENNYKTTPPVLDSDGSFFLVSKLTVDKSRWQQGNVFSCSVMHEALHNHYTQKSLSLSPGK
notes: BCMAxCD3, Fab(cross VH/VL)-Fc-VH (structure 12); CD3 of PR000511, BCMA VH of PR000943; IgG1 knob/hole, AAG
B4: PR001994 (bispecific antibody, human IgG1, kappa, L234A L235A)
chain 1: EVQLLESGGGLVQPGGSLRLSCAASGFTFNTYAMNWVRQAPGKGLEWVSRIRSKYNNYATYYADSVKDRFTISRDDSKSTLYLQMNSLRAEDTAVYYCVRHGNFGNSYVSWFAYWGQGTLVTVSSRTVAAPSVFIFPPSDEQLKSGTASVVCLLNNFYPREAKVQWKVDNALQSGNSQESVTEQDSKDSTYSLSSTLTLSKADYEKHKVYACEVTHQGLSSPVTKSFNRGEC
chain 2: QAVVTQEPSLTVSPGGTVTLTCRSSTGAVTTSNYANWVQQKPGQAPRGLIGGTNKRAPWTPARFSGSLLGDKAALTLLGAQPEDEAEYFCALWYSNLWVFGGGTKLTVLSSASTKGPSVFPLAPSSKSTSGGTAALGCLVKDYFPEPVTVSWNSGALTSGVHTFPAVLQSSGLYSLSSVVTVPSSSLGTQTYICNVNHKPSNTKVDKKVEPKSCDKTHTCPPCPAPEAAGGPSVFLFPPKPKDTLMISRTPEVTCVVVDVSHEDPEVKFNWYVDGVEVHNAKTKPREEQYNSTYRVVSVLTVLHQDWLNGKEYKCKVSNKALGAPIEKTISKAKGQPREPQVYTLPPCREEMTKNQVSLWCLVKGFYPSDIAVEWESNGQPENNYKTTPPVLDSDGSFFLYSKLTVDKSRWQQGNVFSCSVMHEALHNHYTQKSLSLSPGK
chain 3: EVQLVETGGGLIQPGGSLRLSCAASGFTVSDNYMTWVRQAPGKGLEWVSVIFSGGNTYYADSVKGRFTISRDNAKNTLYLQMNSLRAEDTALYYCARRNYDDTRGTDVFDIWGQGTMVTVSSASEPKSSDKTHTCPPCPAPEAAGGPSVFLFPPKPKDTLMISRTPEVTCVVVDVSHEDPEVKFNWYVDGVEVHNAKTKPREEQYNSTYRVVSVLTVLHQDWLNGKEYKCKVSNKALGAPIEKTISKAKGQPREPQVCTLPPSREEMTKNQVSLSCAVKGFYPSDIAVEWESNGQPENNYKTTPPVLDSDGSFFLVSKLTVDKSRWQQGNVFSCSVMHEALHNHYTQKSLSLSPGK
notes: BCMAxCD3, Fab(cross VH/VL)-Fc-VH (structure 12); CD3 of PR000511, BCMA VH of PR001046; IgG1 knob/hole, AAG
B5: PR001993 (bispecific antibody, human IgG1, kappa, L234A L235A)
chain 1: EVQLLESGGGLVQPGGSLRLSCAASGFTFNTYAMNWVRQAPGKGLEWVSRIRSKYNNYATYYADSVKDRFTISRDDSKSTLYLQMNSLRAEDTAVYYCVRHGNFGNSYVSWFAYWGQGTLVTVSSRTVAAPSVFIFPPSDEQLKSGTASVVCLLNNFYPREAKVQWKVDNALQSGNSQESVTEQDSKDSTYSLSSTLTLSKADYEKHKVYACEVTHQGLSSPVTKSFNRGEC
chain 2: QAVVTQEPSLTVSPGGTVTLTCRSSTGAVTTSNYANWVQQKPGQAPRGLIGGTNKRAPWTPARFSGSLLGDKAALTLLGAQPEDEAEYFCALWYSNLWVFGGGTKLTVLSSASTKGPSVFPLAPSSKSTSGGTAALGCLVKDYFPEPVTVSWNSGALTSGVHTFPAVLQSSGLYSLSSVVTVPSSSLGTQTYICNVNHKPSNTKVDKKVEPKSCDKTHTCPPCPAPEAAGGPSVFLFPPKPKDTLMISRTPEVTCVVVDVSHEDPEVKFNWYVDGVEVHNAKTKPREEQYNSTYRVVSVLTVLHQDWLNGKEYKCKVSNKALGAPIEKTISKAKGQPREPQVYTLPPCREEMTKNQVSLWCLVKGFYPSDIAVEWESNGQPENNYKTTPPVLDSDGSFFLYSKLTVDKSRWQQGNVFSCSVMHEALHNHYTQKSLSLSPGK
chain 3: EVQLVETGGGLIQPGGSLRLSCAASGFTVSSNYMTWVRQAPGKGLEWVSVIFSGGSTYYADSVKGRFTISRDNSKNTLYLQMNSLRAEDTAVYYCARRIAVAGHDVFDIWGQGTMVTVSSASEPKSSDKTHTCPPCPAPEAAGGPSVFLFPPKPKDTLMISRTPEVTCVVVDVSHEDPEVKFNWYVDGVEVHNAKTKPREEQYNSTYRVVSVLTVLHQDWLNGKEYKCKVSNKALGAPIEKTISKAKGQPREPQVCTLPPSREEMTKNQVSLSCAVKGFYPSDIAVEWESNGQPENNYKTTPPVLDSDGSFFLVSKLTVDKSRWQQGNVFSCSVMHEALHNHYTQKSLSLSPGK
notes: BCMAxCD3, Fab(cross VH/VL)-Fc-VH (structure 12); CD3 of PR000511, BCMA VH of PR001035; IgG1 knob/hole, AAG

In this test the target is T1, human BCMA. In words: FACS on NCI-H929 cells.
Description: This example is intended to investigate the binding activity of anti-BCMA HCAb antibodies to human and cynomolgus monkey BCMAs. […] Specifically, HEK293T/hBCMA cells and HEK293T/cyno BCMA cells were digested and resuspended in a DMEM complete medium. In addition, NCI-H929 cell suspension was collected. The density of each of the three cells was adjusted to 1×10⁶ cells/mL. […] The cells were incubated at 4° C. for 1 h away from light. Thereafter, the cells in each well were rinsed twice with 100 μL of pre-cooled PBS, and centrifuged at 500 g at 4° C. for 5 min, and then the supernatant was discarded. […] The cells in each well were rinsed twice with 100 μL of pre-cooled PBS, and centrifuged at 500 g at 4° C. for 5 min, and then the supernatant was discarded. Finally, the cells in each well were resuspended in 200 μL of pre-cooled PBS. Fluorescence signal values were read using a BD FACS CANTOII flow cytometer or an ACEA NovoCyte flow cytometer, and the data were processed and analyzed using FlowJo v10 (FlowJo, LLC) software. The data were processed and analyzed by plotting using GraphPad Prism 8 software, and binding curves of the antibodies to target cells, EC₅₀ values and other parameters were obtained through four-parameter nonlinear fitting.
Take B1: a half-maximal response (EC50) required 7.3 nM and the “Maximum MFI” value came out at 17400.

Consider B2, for which it took 1.7 nM to reach a half-maximal effect (EC50) and the “Maximum MFI” value was found to be 12500.

In the case of B3, the “Maximum MFI” value is 3210.

With B4, the “Maximum MFI” value stood at 3430.

B5: the “Maximum MFI” value amounted to 1290.
